Data from the supplement of paper PMC9112550, “Optimization of the antimicrobial peptide Bac7 by deep mutational scanning” (BMC Biology, 2022).

Test system: Escherichia coli TOP10
Assay: shrunken log2 fold change of peptide-encoding DNA abundance (4.5 h post-induction vs induction); higher = less antimicrobial activity (less host growth inhibition)
Details: time post-induction: 4.5 h; library: site-saturation at positions 5, 18, 19, 20
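Also: peptides expressed intracellularly from a pBAD plasmid library in pooled LB shake-flask culture, induced with 0.3% L-arabinose, DNA abundance read by NGS, three biological replicates, DESeq2 with apeglm shrinkage.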

| Sequence | shrunken log2 fold change |
| --- | --- |
| RRIRVRPPRLPRPRPRPEVAPRP | 1.82 |
| RRIRCRPPRLPRPRPRPDGCPRP | -0.0861 |
| RRIRKRPPRLPRPRPRPHYRPRP | 0.0224 |
| RRIRVRPPRLPRPRPRPKMWPRP | 0.0893 |
| RRIRRRPPRLPRPRPRPWYGPRP | -0.263 |
| RRIRLRPPRLPRPRPRPHWKPRP | 0.0019 |
| RRIRFRPPRLPRPRPRPWMRPRP | 0.495 |
| RRIRRRPPRLPRPRPRPGTFPRP | -0.578 |
| RRIRGRPPRLPRPRPRPNLEPRP | 0.678 |
| RRIRSRPPRLPRPRPRPRSWPRP | 0.0511 |
| RRIRGRPPRLPRPRPRPGIIPRP | 0.0469 |
| RRIRNRPPRLPRPRPRPEPYPRP | 0.0346 |
| RRIRFRPPRLPRPRPRPNTWPRP | -0.277 |
| RRIRKRPPRLPRPRPRPQCVPRP | 0.117 |
| RRIRVRPPRLPRPRPRPIRHPRP | -0.112 |
| RRIRGRPPRLPRPRPRPDGPPRP | 0.155 |
| RRIRWRPPRLPRPRPRPVQMPRP | 0.159 |
| RRIRNRPPRLPRPRPRPTWWPRP | 0.326 |
| RRIRFRPPRLPRPRPRPAYMPRP | -0.564 |
| RRIRNRPPRLPRPRPRPFHLPRP | -0.147 |
| RRIRHRPPRLPRPRPRPIYSPRP | 0.0188 |
| RRIRMRPPRLPRPRPRPLFEPRP | 0.633 |
| RRIRRRPPRLPRPRPRPAQPPRP | 0.958 |
| RRIRWRPPRLPRPRPRPEIWPRP | 1 |
| RRIRGRPPRLPRPRPRPHLKPRP | 0.378 |

| Sequence | shrunken log2 fold change |
| --- | --- |
| RRIRQRPPRLPRPRPRPLSRPRP | -0.0591 |
| RRIRHRPPRLPRPRPRPISEPRP | -0.0415 |
| RRIRPRPPRLPRPRPRPGSEPRP | 0.0814 |
| RRIRPRPPRLPRPRPRPMANPRP | 1.35 |
| RRIRMRPPRLPRPRPRPRCGPRP | 0.733 |
| RRIRDRPPRLPRPRPRPRIGPRP | -0.00724 |
| RRIRYRPPRLPRPRPRPTPRPRP | 0.886 |
| RRIRPRPPRLPRPRPRPDLSPRP | 0.158 |
| RRIRLRPPRLPRPRPRPEFYPRP | 0.0488 |
| RRIRQRPPRLPRPRPRPCCNPRP | -0.0838 |
| RRIRQRPPRLPRPRPRPLMSPRP | -0.0453 |
| RRIRCRPPRLPRPRPRPQLYPRP | -0.236 |
| RRIRERPPRLPRPRPRPWWPPRP | -0.155 |
| RRIRVRPPRLPRPRPRPKKQPRP | 0.216 |
| RRIRGRPPRLPRPRPRPRHTPRP | 0.7 |
| RRIRERPPRLPRPRPRPSCAPRP | -0.173 |
| RRIRGRPPRLPRPRPRPGIWPRP | 0.758 |
| RRIRSRPPRLPRPRPRPMMVPRP | -0.203 |
| RRIRTRPPRLPRPRPRPECTPRP | 0.0491 |
| RRIRQRPPRLPRPRPRPNVCPRP | -0.575 |
| RRIRKRPPRLPRPRPRPEILPRP | 0.728 |
| RRIRERPPRLPRPRPRPWKEPRP | 0.0039 |
| RRIRWRPPRLPRPRPRPNFPPRP | 0.0284 |
| RRIRVRPPRLPRPRPRPRIFPRP | 0.137 |
| RRIRHRPPRLPRPRPRPKYNPRP | -0.892 |

| Sequence | shrunken log2 fold change |
| --- | --- |
| RRIRIRPPRLPRPRPRPTADPRP | -0.063 |
| RRIRDRPPRLPRPRPRPRFLPRP | -0.201 |
| RRIRGRPPRLPRPRPRPMAEPRP | 1.73 |
| RRIRTRPPRLPRPRPRPFGMPRP | 0.00903 |
| RRIRTRPPRLPRPRPRPLNYPRP | -0.415 |
| RRIRGRPPRLPRPRPRPVRWPRP | 0.965 |
| RRIRCRPPRLPRPRPRPYNNPRP | -1.23 |
| RRIRFRPPRLPRPRPRPNCIPRP | -0.342 |
| RRIRWRPPRLPRPRPRPPWKPRP | 0.24 |
| RRIRNRPPRLPRPRPRPITRPRP | -0.0765 |
| RRIRLRPPRLPRPRPRPAMLPRP | -0.0377 |
| RRIRMRPPRLPRPRPRPYNHPRP | -0.491 |
| RRIRPRPPRLPRPRPRPQDSPRP | -0.196 |
| RRIRCRPPRLPRPRPRPVHRPRP | -0.319 |
| RRIRVRPPRLPRPRPRPDDLPRP | -0.0407 |
| RRIRMRPPRLPRPRPRPYFFPRP | -0.175 |
| RRIRFRPPRLPRPRPRPSMFPRP | -0.505 |
| RRIRHRPPRLPRPRPRPMEHPRP | -0.337 |
| RRIRVRPPRLPRPRPRPMTRPRP | -0.123 |
| RRIRWRPPRLPRPRPRPPRFPRP | 0.326 |
| RRIRTRPPRLPRPRPRPMKDPRP | -0.303 |
| RRIRMRPPRLPRPRPRPRTPPRP | 1.26 |
| RRIRTRPPRLPRPRPRPEAVPRP | -0.0221 |
| RRIRGRPPRLPRPRPRPMVWPRP | 0.156 |
| RRIRRRPPRLPRPRPRPHCPPRP | 0.0475 |

| Sequence | shrunken log2 fold change |
| --- | --- |
| RRIRNRPPRLPRPRPRPRFPPRP | -0.365 |
| RRIRPRPPRLPRPRPRPQPTPRP | -0.0242 |
| RRIRPRPPRLPRPRPRPVNFPRP | -0.59 |
| RRIRGRPPRLPRPRPRPDWAPRP | 1.22 |
| RRIRCRPPRLPRPRPRPDYMPRP | -0.133 |
| RRIRWRPPRLPRPRPRPNLVPRP | -0.0198 |
| RRIRNRPPRLPRPRPRPKEIPRP | 0.0136 |
| RRIRLRPPRLPRPRPRPLASPRP | 0.177 |
| RRIRFRPPRLPRPRPRPSVLPRP | -0.246 |
| RRIRLRPPRLPRPRPRPPYYPRP | -0.292 |
| RRIRVRPPRLPRPRPRPTVDPRP | 0.177 |
| RRIRIRPPRLPRPRPRPHDKPRP | -0.74 |
| RRIRMRPPRLPRPRPRPYNPPRP | -0.21 |
| RRIRCRPPRLPRPRPRPNCKPRP | -0.138 |
| RRIRRRPPRLPRPRPRPFKVPRP | -0.0272 |
| RRIRWRPPRLPRPRPRPVWIPRP | 0.142 |
| RRIRKRPPRLPRPRPRPSDYPRP | -0.08 |
| RRIRNRPPRLPRPRPRPQCFPRP | 0.242 |
| RRIRVRPPRLPRPRPRPFITPRP | -0.334 |
| RRIRDRPPRLPRPRPRPANHPRP | -0.438 |
| RRIRSRPPRLPRPRPRPQDRPRP | -0.0318 |
| RRIRGRPPRLPRPRPRPMSTPRP | 0.44 |
| RRIRERPPRLPRPRPRPTCRPRP | -0.146 |
| RRIRCRPPRLPRPRPRPPIPPRP | 0.31 |
| RRIRSRPPRLPRPRPRPCNYPRP | -0.455 |

| Sequence | shrunken log2 fold change |
| --- | --- |
| RRIRSRPPRLPRPRPRPADPPRP | 0.0724 |
| RRIRFRPPRLPRPRPRPCMSPRP | -0.0366 |
| RRIRARPPRLPRPRPRPFGLPRP | 2.49 |
| RRIRFRPPRLPRPRPRPSKWPRP | -0.273 |
| RRIRERPPRLPRPRPRPAQQPRP | -0.0516 |
| RRIRIRPPRLPRPRPRPEPMPRP | 0.132 |
| RRIRCRPPRLPRPRPRPSAWPRP | 0.0978 |
| RRIRKRPPRLPRPRPRPYVCPRP | -0.0742 |
| RRIRDRPPRLPRPRPRPTDKPRP | -0.118 |
| RRIRKRPPRLPRPRPRPEPAPRP | 1.45 |
| RRIRYRPPRLPRPRPRPPMNPRP | -0.728 |
| RRIRKRPPRLPRPRPRPHHTPRP | -0.254 |
| RRIRIRPPRLPRPRPRPPKYPRP | -0.886 |
| RRIRNRPPRLPRPRPRPYGGPRP | -0.0102 |
| RRIRQRPPRLPRPRPRPEQPPRP | 0.393 |
| RRIRMRPPRLPRPRPRPNQTPRP | -0.0789 |
| RRIRKRPPRLPRPRPRPTGYPRP | 0.214 |
| RRIRCRPPRLPRPRPRPTIDPRP | 0.0362 |
| RRIRCRPPRLPRPRPRPIYGPRP | -0.203 |
| RRIRARPPRLPRPRPRPFICPRP | -0.1 |
| RRIRRRPPRLPRPRPRPIQQPRP | -0.0495 |
| RRIRRRPPRLPRPRPRPKHEPRP | 0.0619 |
| RRIRQRPPRLPRPRPRPRHPPRP | 0.283 |
| RRIRVRPPRLPRPRPRPQILPRP | -0.451 |
| RRIRGRPPRLPRPRPRPDEEPRP | 1.76 |
